Reference: patent US20180066015A1, “INHIBITORS OF GROWTH FACTOR ACTIVATION ENZYMES” (Washington University, published 2018)
Where “and” joins values, the source holds several entries; their conditions need not be identical. Identical values can stand only once. Like-named read-outs stand apart in the source and are kept apart here. Positions of bridges follow the written chain, without caps; N, C: chain ends. Primed or numbered codes have the meaning given here. No end group written: not given here. *: point of attachment. kbt‑6‑CONH‑4‑piperidine = ketobenzothiazole-6-CONH-4-piperidine (Kbt-4-piperidinylamide), O=C(NC1CCNCC1)c1ccc2nc(*)sc2c1; kbt‑6‑CONH‑4‑pyridine = ketobenzothiazole-6-CONH-4-pyridine (Kbt-4-pyridinylamide), O=C(Nc1ccncc1)c1ccc2nc(*)sc2c1; kbt‑6‑CONH‑Bn = ketobenzothiazole-6-CONH-benzyl (Kbt-benzylamide), O=C(NCc1ccccc1)c1ccc2nc(*)sc2c1; kbt‑6‑COOH = ketobenzothiazole-6-COOH, O=C(O)c1ccc2nc(*)sc2c1; kbt = C-terminal ketobenzothiazole, c1ccc2sc(*)nc2c1; Kbt = ketobenzothiazole, c1ccc2sc(*)nc2c1; kt = C-terminal ketothiazole, c1csc(*)n1; Fmoc = O=C(OCC1c2ccccc2-c2ccccc21)*; kt″ = ketothiazole, c1csc(*)n1

T1: matriptase (Charles Craik, UCSF), recombinant (Homo sapiens (Human), UniProt Q9Y5Y6)
T1 sequence: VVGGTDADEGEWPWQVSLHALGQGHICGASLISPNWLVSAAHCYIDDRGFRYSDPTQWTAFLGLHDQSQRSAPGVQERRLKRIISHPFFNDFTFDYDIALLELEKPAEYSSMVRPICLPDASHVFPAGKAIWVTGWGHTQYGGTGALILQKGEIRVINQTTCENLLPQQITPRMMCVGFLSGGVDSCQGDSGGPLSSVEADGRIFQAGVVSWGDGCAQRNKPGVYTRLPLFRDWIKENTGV

B1: H-WRLR(SEQ ID NO: 9)-Kbt (peptide)
peptide: H-WRLR-kbt
SMILES: CC(C)C[C@H](NC(=O)[C@H](CCCNC(=N)N)NC(=O)[C@@H](N)Cc1c[nH]c2ccccc12)C(=O)N[C@@H](CCCNC(=N)N)C(=O)c1nc2ccccc2s1
B2: Ac-KHLR(SEQ ID NO: 2)-kt (peptide)
peptide: Ac-KHLR-{kt″}
SMILES: CC(=O)N[C@@H](CCCCN)C(=O)N[C@@H](Cc1c[nH]cn1)C(=O)N[C@@H](CC(C)C)C(=O)N[C@@H](CCCNC(=N)N)C(=O)c1nccs1
B3: Ac-FLFR(SEQ ID NO: 19)-Kbt (peptide)
peptide: Ac-FLFR-Kbt
SMILES: CC(=O)N[C@@H](Cc1ccccc1)C(=O)N[C@@H](CC(C)C)C(=O)N[C@@H](Cc1ccccc1)C(=O)N[C@@H](CCCNC(=N)N)C(=O)c1nc2ccccc2s1
B4: Ac-KRLR(SEQ ID NO: 8)-Kbt (peptide)
peptide: Ac-KRLR-Kbt
SMILES: CC(=O)N[C@@H](CCCCN)C(=O)N[C@@H](CCCNC(=N)N)C(=O)N[C@@H](CC(C)C)C(=O)N[C@@H](CCCNC(=N)N)C(=O)c1nc2ccccc2s1
B5: Ac-SQLR(SEQ ID NO: 7)-kt (peptide)
peptide: Ac-SQLR-kt
SMILES: CC(=O)N[C@@H](CO)C(=O)N[C@@H](CCC(N)=O)C(=O)N[C@@H](CC(C)C)C(=O)N[C@@H](CCCNC(=N)N)C(=O)c1nccs1
B6: Ac-NKLR(SEQ ID NO: 14)-kt (peptide)
peptide: Ac-NKLR-kt
SMILES: CC(=O)N[C@@H](CC(N)=O)C(=O)N[C@@H](CCCCN)C(=O)N[C@@H](CC(C)C)C(=O)N[C@@H](CCCNC(=N)N)C(=O)c1nccs1
B7: Ac-TKLR(SEQ ID NO: 16)-kt (peptide)
peptide: Ac-TKLR-kt
SMILES: CC(=O)N[C@H](C(=O)N[C@@H](CCCCN)C(=O)N[C@@H](CC(C)C)C(=O)N[C@@H](CCCNC(=N)N)C(=O)c1nccs1)[C@@H](C)O
B8: Ac-SKLR(SEQ ID NO: 10)-Kbt-COOH (peptide)
peptide: Ac-SKLR-{kbt‑6‑COOH}
SMILES: CC(=O)N[C@@H](CO)C(=O)N[C@@H](CCCCN)C(=O)N[C@@H](CC(C)C)C(=O)N[C@@H](CCCNC(=N)N)C(=O)c1nc2ccc(C(=O)O)cc2s1
B9: Ac-SKLR(SEQ ID NO: 10)-Kbt (peptide)
peptide: Ac-SKLR-kbt
SMILES: CC(=O)N[C@@H](CO)C(=O)N[C@@H](CCCCN)C(=O)N[C@@H](CC(C)C)C(=O)N[C@@H](CCCNC(=N)N)C(=O)c1nc2ccccc2s1

How the values were obtained:
[1] = target: recombinant thrombin; experiment: selectivity inhibition assay
[2] = target: Trypsin; experiment: selectivity inhibition assay
[3] = target: Factor Xa; experiment: selectivity inhibition assay
[4] = target: T2, Recombinant human hepsin (4776-SE-010, R&D Systems), activated (human, UniProt P05981); experiment: fluorogenic inhibition assay
Experimental: (§1) Inhibitors (11-pt serial dilutions, 0-20 μM final concentration in reaction) were serially diluted in DMSO (2% DMSO final concentration) and then mixed with either recombinant serine protease domain of HGFA [Z. Han, P. K. Harris, D. E. Jones, R. Chugani, T. Kim, M. Agarwal, W. Shen, S. A. Wildman, J. W. Janetka, Acs Med Chem Lett 2014, 5, 1219-1224], matriptase (Charles Craik, UCSF) or hepsin* (#4776-SE-010, R&D Systems, Minneapolis, Minn.) in black 384 well plates (Corning #3575. Corning, N.Y.). […] The final substrate concentrations for all assays were at the Kₘ for the respective enzymes. Changes in fluorescence (excitation at 380 nm and emission at 460 nm) were measured at room temperature over time in a Biotek Synergy 2 plate reader (Winnoski, Vt.). Using GraphPad Prism version 6.04 software program, (GraphPad Software, San Diego, Calif., www.graphpad.com), a four parameter curve fit was used to determine the inhibitor IC₅₀s from a plot of the mean reaction velocity versus the inhibitor concentration. The IC₅₀ values represent the average of three separate experimental determinations.
(§2) Fluorescent inhibitor and chromogenic proteolytic assays were performed in general accordance with the procedures described in Example 4 for compounds prepared in Examples 5 and 6.

[5] = target: Hepatocyte Growth Factor Activator (HGFA) serine protease domain, N-terminal His-tag, recombinant (Homo sapiens (Human)) (UniProt Q04756); experiment: fluorogenic inhibition assay
[6] = target: T1, matriptase (Charles Craik, UCSF), …; experiment: fluorogenic inhibition assay
Experimental: as §1, §2

[7] = target: T1, matriptase (Charles Craik, UCSF), …; experiment: fluorogenic inhibition assay; remark: listed apart in the source
Experimental: as §1

[8] = target: T2, Recombinant human hepsin (4776-SE-010, …); experiment: fluorogenic inhibition assay; remark: listed apart in the source
Experimental: as §1

[9] = target: Hepatocyte Growth Factor Activator (HGFA) serine protease domain, N-terminal His-tag, recombinant (Homo sapiens (Human)) (UniProt Q04756)

Row | Binder | Ki [1] | Ki [2] | Ki [3] | Ki [4] | Ki [5] | Ki [6] | Ki [7] | Ki [8] | IC50 of enzyme inhibition [9]
1 | H-Leu-Leu-Arg-{kbt-Val-NH2} [H-LLR-kbt-Val-NH2] | 101 nM | 0.61 nM | 159 nM | 0.88 nM | 82.1 nM | – | – | – | –
2 | Fmoc-Leu-Arg-kbt [Fmoc-LR-kbt] | 995 nM | 19.8 nM | 410 nM | 115 nM | 450 nM | 425 nM | – | – | –
3 | B1 | 4890 nM | 0.96 nM | 2.4 nM | 0.12 nM | 8.75 nM | 3.79 nM | – | – | –
4 | H-Arg-Leu-Arg-{kbt-Val-NH2} [H-RLR-kbt-Val-NH2] | 548 nM | 0.31 nM | 18 nM | 0.44 nM | 12.5 nM | 4.2 nM | – | – | –
5 | Ac-KRLR-Kbt (not fully specified) [Ac-KRLR(SEQ ID NO: 8)-Kbt-5-COOH] | 1940 nM | 1.06 nM | 20.2 nM | 0.37 nM | 6.07 nM | 5.14 nM | – | – | –
6 | B2 | – | – | – | – | 96 nM | – | 22.3 nM | 0.41 nM | 650 nM
7 | Ac-SKLR (not fully specified (C-terminus)) [Ac-SKLR(SEQ ID NO: 10)-Kbt-Phe-NH2] | 3640 nM | 0.27 nM | 544 nM | 0.14 nM | 17.3 nM | 6.26 nM | – | – | –
8 | Ac-KRLR-{Kbt-Benzyl‑3‑COOMe} [Ac-KRLR(SEQ ID NO: 8)-kbt-Benzyl-3-COOMe] | 85.4 nM | 0.04 nM | 14 nM | 0.36 nM | 7.76 nM | 1.8 nM | – | – | –
9 | Ac-KRLR-{Kbt-Benzyl‑4‑COOMe} [Ac-KRLR(SEQ ID NO: 8)-kbt-Benzyl-4-COOMe] | 20.9 nM | 0.05 nM | 9 nM | 0.26 nM | 5.85 nM | 0.98 nM | – | – | –
10 | Ac-SKLR (not fully specified (C-terminus)) [Ac-SKLR(SEQ ID NO: 10)-Kbt-Trp-NH2] | 1230 nM | 0.02 nM | 163 nM | 0.098 nM | 15.8 nM | 3.74 nM | – | – | –
11 | Ac-SKLR-{kbt‑6‑CONH‑Bn} [Ac-SKLR(SEQ ID NO: 10)-Kbt-benzylamide] | 2470 nM | 0.05 nM | 190 nM | 0.8 nM | 9.1 nM | 0.36 nM | – | – | –
12 | B3 | > 20000 nM | 0.27 nM | 13.1 nM | 1.44 nM | 114 nM | 3.6 nM | – | – | –
13 | B4 | > 20000 nM | 0.82 nM | 91.9 nM | 0.112 nM | 6 nM | 0.54 nM | – | – | –
14 | H-Trp-Leu-Arg-{kbt-Val-NH2} [H-WLR-kbt-Val-NH2] | 41 nM | 0.01 nM | 159 nM | 1.31 nM | 73.9 nM | 49.2 nM | – | – | –
15 | B5 | – | – | – | – | 182 nM | – | 9.2 nM | 0.34 nM | 180 nM
16 | H-Arg-Leu-Arg-kbt [H-RLR-kbt] | 8200 nM | 0.13 nM | 56 nM | 0.5 nM | 83.1 nM | – | – | – | –
17 | Ac-Leu-Leu-Arg-kt [Ac-LLR-kt] | – | – | – | – | 253 nM | – | – | 2.29 nM | 1480 nM
18 | B6 | – | – | – | – | 79 nM | – | 12 nM and 12.4 nM | 1.4 nM and 1.41 nM | 397 nM and 400 nM
19 | Ac-SKLR-{kbt‑6‑CONH‑4‑piperidine} [Ac-SKLR(SEQ ID NO: 10)-Kbt-4-piperidinylamide] | 2950 nM | 0.41 nM | 447 nM | 0.2 nM | 7.7 nM | 1.28 nM | – | – | –
20 | Ac-SKLR-{kbt‑6‑CO-Val-NH2} [Ac-SKLR(SEQ ID NO: 10)-Kbt-Val-NH2] | 4500 nM | 0.34 nM | 385 nM | 0.19 nM | 13 nM | 10.3 nM | – | – | –
21 | H-KQDRR-kt (lactam 1-3; also: 3:1 D/L diastereomers at the alpha keto carbon) [H-cyclo(KQD)RR-kt] | – | – | – | – | 5940 nM | – | 0.71 nM | – | –
22 | H-Trp-Leu-Arg-kbt [H-WLR-kbt] | 457 nM | 0.05 nM | 532 nM | 1.52 nM | 104 nM | – | – | – | –
23 | B7 | – | – | – | – | 103 nM | – | 8.7 nM | 0.61 nM | 567 nM
24 | B8 | > 2000 nM | 0.03 nM | 1250 nM | 0.173 nM | 132 nM | 54.8 nM | – | – | –
25 | Fmoc-Phe-Arg-kbt [Fmoc-FR-kbt] | > 2000 nM | 14.3 nM | 28.4 nM | 778 nM | 964 nM | 1280 nM | – | – | –
26 | Ac-SKLR-{kbt‑6‑CONH‑4‑pyridine} [Ac-SKLR(SEQ ID NO: 10)-Kbt-4-pyridinylamide] | 3430 nM | 1.06 nM | 221 nM | 0.14 nM | 31.8 nM | 3.95 nM | – | – | –
27 | B9 | > 20000 nM | 0.16 nM | 1900 nM | 0.16 nM | 33 nM | 3.05 nM | – | – | –
